Results published in US11649460B2, “DNA aptamers, method for inhibiting human galectin-1 and method of treating a mammal in need thereof” (priority 2020, dated 2023).

Tests used:
[1] = system: A-375 human malignant melanoma; assay: SRB cell proliferation (cytotoxicity) assay, A-375
Description: (§1) The XLSTAT software was used to determine the IC50, TGI and LC50 values using the four-parameter logistic curve equation.

[2] = system: HCT 116 human colorectal carcinoma; assay: SRB cell proliferation (cytotoxicity) assay, HCT 116
Description: as §1

[3] = system: SK-BR-3 human breast adenocarcinoma; assay: SRB cell proliferation (cytotoxicity) assay, SK-BR-3
Description: as §1

[4] = system: OVCAR-3 human ovarian adenocarcinoma cell line; assay: SRB cell proliferation (cytotoxicity) assay, OVCAR-3
Description: as §1

[5] = biological target: T1, native human galectin-1 (hGal1) (Homo sapiens, UniProt P09382); assay: Thermofluor thermal shift assay (TSA), native galectin-1; type: binding; details: 5 μM protein
T1 construct: 42; made in house; host or cells: E. coli strain M-15
T1 sequence (P09382 2-135): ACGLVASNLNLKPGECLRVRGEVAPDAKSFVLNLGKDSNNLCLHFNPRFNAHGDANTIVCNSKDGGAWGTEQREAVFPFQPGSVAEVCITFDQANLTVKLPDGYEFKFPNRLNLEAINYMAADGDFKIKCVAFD
Summary of the method: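 Purified native or alkylated hGal1 (5 μM) was incubated 30 min with increasing aptamer SEQ ID NO.: 4 concentrations in PBS 1× with 5× SYPRO Orange. Samples were heated 25–95 °C at 1 °C/min, and melting temperature was derived from the fluorescence denaturation curves.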

alkylated galectin-1 = assay: Thermofluor thermal shift assay (TSA), alkylated galectin-1; type: binding, human; details: 5 μM protein
Chain of alkylated galectin-1 (P09382 2-135): as above
Protocol: In an attempt to screen among the selected aptamers that better interact with hGal1, differential scanning fluorimetry (Termofluor) was used to characterize their binding to its target. Among all the selected aptamers, SEQ ID NO.: 4 seemed to have a more intense effect on hGal1 thermoshift and so was chosen for further analysis. The selected aptamer had its interaction evaluated with native and alkylated galectin-1. […] The respective thermal displacements were evaluated as a function of an increasing concentration of SEQ ID NO.: 4 (FIG. 1).
Thermofluor experiments were performed on an Mx3005 RT-PCR (Agilent Technologies) using the SYPRO® Orange dye (492/610 nm) (Invitrogen) as fluorescent probe. The purified (native and alkylated) protein samples were incubated for 30 min with increasing concentration of the molecules of interest, centrifuged, and submitted to the thermal denaturation assay, totalizing four distinct experiments. In a 96-well plate (Agilent Technologies) 20 μl of the reaction containing 5 μM of each protein in buffer PBS 1× and 5× SYPRO® Orange were heated from 25° C. to 95° C. at a rate of 1° C./min. The experimental result was processed as in the protocol previously described and the melting temperature was obtained using GraphPad Prism software (www.graphpad.com).

human galectin-1 (hGal1) = biological target: T2, human galectin-1 (hGal1) (Homo sapiens, UniProt P09382); assay: Tryptophan fluorescence quenching (Stern-Volmer); type: binding; details: Stern-Volmer fit; 5 μM hGal1, aptamer 0 to 7.2 μM; read-out: apparent dissociation constant
T2 construct: 42; made in house; host or cells: E. coli strain M-15
T2 sequence (P09382 2-135): as above
Protocol: Fluorescence measurements were taken by a spectrofluorimeter HITACHI F-4500, the spectra were collected by excitation and emission at a rate of 240 nm per min, using a 5 nm slit widths and recorded at room temperature. A total of 5 μM hGal1 solution was incubated for 10 hours with aptamer aliquots as quencher, from 0 to 7.2 μM, in PBS 1× buffer. The spectra were obtained between 300-450 nm after excitation at 295 nm and all buffer contributions were corrected for measurements. As previously described, the log of fluorescence quenching was evaluated by plotting it versus log of aptamer concentration. The Stern-Volmer equation was used to estimate the number of interacting sites (n) and the apparent kD.
Human galectin-1 tryptophan residue has an emission peak at 348 nm after […] exited. SEQ ID NO.: 4 promotes changes the fluorescence spectrum of Trp68, which is the sole Trp in the subunit of hGal1 and is one of the residues constituting its CRD. Upon the aptamer addition, fluorescence emission decreased (FIG. 1C). The fluorescence quenching log versus aptamer concentration log measurements was plotted and it was fitted with Stern-volmer equation. The best fit established apparent dissociation constant of approximately 31.9 nM and a binding site of 1.5 (FIG. 1D).

[6] = biological target: T3, hGal1-induced hemagglutination of red blood cells (Homo sapiens, UniProt P09382); assay: Hemagglutination inhibition assay, native hGal1; type: cell-based
T3 construct: 42; made in house; host or cells: E. coli strain M-15
T3 sequence (P09382 2-135): as above
Summary of the method: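 hGal1 (5 μM) was mixed with aptamer at 0-40 μM in PBS pH 7.4, then 3% type B+ human red blood cells were added and the mixture incubated 2 h at room temperature. Agglutination area was measured from plate photographs and expressed as relative agglutination.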

alkylated Gal1 = biological target: T4, alkylated Gal1 (Homo sapiens, UniProt P09382); assay: Hemagglutination inhibition assay, alkylated Gal1; type: cell-based; details: alkylated Gal1 5 μM
T4 construct: 42; made in house; host or cells: E. coli strain M-15
T4 sequence (P09382 2-135): as above
Protocol: FIG. 15 illustrates the hemagglutination test with constant protein concentration at 5 μM and titration of aptamers SEQ ID NO.: 4 and SEQ ID NO.: 9. (a) Titration with aptamer 4. The hemagglutination of native Gal1 was inhibited from the concentration of 10 μM of this compound.
Hemagglutination assay was adopted to assess the capacity of SEQ ID NO.: 4 in inhibiting the lectin cross-linking aggregation of red blood cells (RBC), as previously described. Briefly, using a 96-well microplates appropriate amounts of 5 μM hGal1 were blended with 50 μL of aptamer in an increasing concentrations manner (0-40 μM) in PBS 1× buffer (pH 7.4). Following, 50 μL of 3% purified type B+ RBC in PBS. After 2 h of room temperature incubation, the plate was photographed and the hemagglutination area was estimated by area calculator Sketchandcalc™ and the results were expressed as relative agglutination.
It was observed that treating hGal-1 with Iodoacetamide, which covalently binds the acetamide group in all solvent accessible cysteines sulfhydryl side chain, abolishes the anti-hemagglutinating activity of the aptamer. According to the proposed binding mode, this happens because Cysteines 2, 88 and 130 interact directly with the aptamer and adding the acetamide group to their side chains would disrupt specific aptamer-protein interactions (FIG. 13C).

B1: CTGACACAGCAGGTTGGTGCCAACTAACACCATAAGAATACCCCGCTCCAAATAAGCCCACACGTAAACCCGAGTCGAGCAATCTCGAAAT (nucleic acid)
DNA: CTGACACAGCAGGTTGGTGCCAACTAACACCATAAGAATACCCCGCTCCAAATAAGCCCACACGTAAACCCGAGTCGAGCAATCTCGAAAT
modifications: chemistry not given here
notes: DNA aptamer that recognizes human galectin-1
- Relative cell viability (%) of test items ([1]; 0.781 µM): 109.5%
- Relative cell viability (%) of test items ([1]; 1.562 µM): 100.6%
- Relative cell viability (%) of test items ([1]; 3.125 µM): 103.0%
- Relative cell viability (%) of test items ([1]; 6.25 µM): 97.3%
- Relative cell viability (%) of test items ([1]; 12.5 µM): 85.8%
- Relative cell viability (%) of test items ([1]; 25 µM): 35.7%
- Relative cell viability (%) of test items ([1]; 50 µM): −69.0%
- Relative cell viability (%) of test items ([1]; 100 µM): −72.3%
- TGI: Concentration for total inhibition of cell growth ([1]; A-375): 29.656 µM
- IC50 ([1]; read-out: IC50: Concentration to inhibit 50% of cell growth, A-375): 22.7 µM
- CC50 ([1]; read-out: LC50: Concentration for 50% cell death, A-375): 41.1 µM
- Relative cell viability (%) of test items ([2]; 0.781 µM): 103.6%
- Relative cell viability (%) of test items ([2]; 1.562 µM): 95.4%
- Relative cell viability (%) of test items ([2]; 3.125 µM): 85.5%
- Relative cell viability (%) of test items ([2]; 6.25 µM): 85.0%
- Relative cell viability (%) of test items ([2]; 12.5 µM): 57.1%
- Relative cell viability (%) of test items ([2]; 25 µM): 24.4%
- Relative cell viability (%) of test items ([2]; 50 µM): 3.6%
- Relative cell viability (%) of test items ([2]; 100 µM): −70.2%
- TGI: Concentration for total inhibition of cell growth ([2]; HCT 116): 45.410 µM
- IC50 ([2]; read-out: IC50: Concentration to inhibit 50% of cell growth, HCT 116): 16.8 µM
- CC50 ([2]; read-out: LC50: Concentration for 50% cell death, HCT 116): 84.4 µM
- Relative cell viability (%) of test items ([3]; 0.781 µM): 101.9%
- Relative cell viability (%) of test items ([3]; 1.562 µM): 103.4%
- Relative cell viability (%) of test items ([3]; 3.125 µM): 98.6%
- Relative cell viability (%) of test items ([3]; 6.25 µM): 106.2%
- Relative cell viability (%) of test items ([3]; 12.5 µM): 96.1%
- Relative cell viability (%) of test items ([3]; 25 µM): 47.0%
- Relative cell viability (%) of test items ([3]; 50 µM): −34.6%
- Relative cell viability (%) of test items ([3]; 100 µM): −86.3%
- TGI: Concentration for total inhibition of cell growth ([3]; SK-BR-3): 37.515 µM
- IC50 ([3]; read-out: IC50: Concentration to inhibit 50% of cell growth, SK-BR-3): 25 µM
- CC50 ([3]; read-out: LC50: Concentration for 50% cell death, SK-BR-3): 56.9 µM
- Relative viability (%) of test items ([4]; 0.781 µM): 99.6%
- Relative viability (%) of test items ([4]; 1.562 µM): 93.9%
- Relative viability (%) of test items ([4]; 3.125 µM): 89.4%
- Relative viability (%) of test items ([4]; 6.25 µM): 67.2%
- Relative viability (%) of test items ([4]; 25 µM): 37.7%
- Relative viability (%) of test items ([4]; 50 µM): −14.6%
- Relative viability (%) of test items ([4]; 100 µM): −68.1%
- TGI: Concentration for total inhibition of cell growth ([4]; OVCAR-3): 41.931 µM
- IC50 ([4]; read-out: IC50: Concentration to inhibit 50% of cell growth, OVCAR-3): 14.2 µM
- CC50 ([4]; read-out: LC50: Concentration for 50% cell death, OVCAR-3): 82.4 µM
- variation of denaturation temperature (Tm) of native hGal1 [5]: greater variation
- variation of denaturation temperature (Tm) of native hGal1 ([5]; listed as SEQ ID NO.: 4): marked decrease in Tm
- temperature variation (Tm) of alkylated galectin-1 (alkylated galectin-1): not significant
- Kd (human galectin-1 (hGal1)): ~0.0319 µM
- inhibition effect over RBC agglutination ([6]; 10 μM aptamer, 5 μM hGal1): approximately 75%
- inhibitory effect on galectin-induced hemagglutination ([6]; native Gal1 5 μM): better effect
- concentration from which hemagglutination was inhibited ([6]; native Gal1 5 μM, listed as aptamer 4): 10 µM
- effect on hemagglutination by alkylated Gal1 (alkylated Gal1): no observed effect
